Experimental data as given in US20260274955A1 (JANUX THERAPEUTICS, published 2026).

What follows are binders tested against Anti-CD28 Fab (SEQ ID NOs: 202, 203) (assay: phage binding ELISA on captured Fab;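 also: clonal phage supernatants added briefly to wells pre-incubated with CD28 antigen or with blocking buffer only, then washed, bound phage read by ELISA using HRP-coupled anti-M13 antibody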).
Anti-CD28 Fab (SEQ ID NOs: 202, 203), sequence (VH, as listed by the source, chain 1 of 2): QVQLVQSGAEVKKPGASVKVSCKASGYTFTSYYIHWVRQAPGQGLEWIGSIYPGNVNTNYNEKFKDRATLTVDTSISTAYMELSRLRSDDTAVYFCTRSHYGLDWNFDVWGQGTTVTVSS
Anti-CD28 Fab (SEQ ID NOs: 202, 203), sequence (VL, as listed by the source, chain 2 of 2): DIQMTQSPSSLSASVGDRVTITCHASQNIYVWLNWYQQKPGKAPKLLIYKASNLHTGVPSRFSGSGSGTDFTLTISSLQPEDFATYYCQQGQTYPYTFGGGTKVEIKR
Protocol: (§1) Clonal phage were harvested as crude supernatants and screened via standard ELISAs. […] Prior to the addition of clonal phage, wells were incubated with blocking buffer and CD28 antigen or blocking buffer alone. Without washing or aspirating, clonal phage supernatants were then added to the wells and incubated for a short time. Wells were then washed followed by detection of bound phage using a horse radish conjugated anti-M13 antibody.
In the case of YCEGHLQEYMGKCL [Phage-860], the “Anti-CD28 Fab (SEQ ID NOs: 202, 203) signal” value is reported as 0.58. For YCAGHDAEYMQKCL [Phage-876], the “Anti-CD28 Fab (SEQ ID NOs: 202, 203) signal” value was 0.46. In the case of YCDGHTWMYKQKCL [Phage-886], the “Anti-CD28 Fab (SEQ ID NOs: 202, 203) signal” value is reported as 0.4. In the case of YCEGHIKDYMTKCL [Phage-875], the “Anti-CD28 Fab (SEQ ID NOs: 202, 203) signal” value is reported as 0.47. YCEGHKKEYMLKCL [Phage-863] was tested, and the “Anti-CD28 Fab (SEQ ID NOs: 202, 203) signal” value was 0.56. For YCQGHLPIYIQKCL [Phage-866], the “Anti-CD28 Fab (SEQ ID NOs: 202, 203) signal” value was 0.51. For YCDGHIMPYLDKCL [Phage-862], the “Anti-CD28 Fab (SEQ ID NOs: 202, 203) signal” value was 0.57. In the case of YCDGHSQIYMSKCL [Phage-882], the “Anti-CD28 Fab (SEQ ID NOs: 202, 203) signal” value is reported as 0.42. For YCDGHVTEYMAKCL [Phage-861], the “Anti-CD28 Fab (SEQ ID NOs: 202, 203) signal” value was 0.58. With YCDGHDEQYLMKCL [Phage-879] the “Anti-CD28 Fab (SEQ ID NOs: 202, 203) signal” value was 0.44. For YCEGHLGLYMKKCL [Phage-871], the “Anti-CD28 Fab (SEQ ID NOs: 202, 203) signal” value was 0.49. In the case of YCEGHLDEYLQKCM [Phage-867], the “Anti-CD28 Fab (SEQ ID NOs: 202, 203) signal” value is reported as 0.51. For YCEGHAPVYMQKCL [Phage-878], the “Anti-CD28 Fab (SEQ ID NOs: 202, 203) signal” value was 0.44. YCTGWQVAYMQNCF [Phage-884] was tested, and the “Anti-CD28 Fab (SEQ ID NOs: 202, 203) signal” value was 0.42. YCEGHMQWYMAKCL [Phage-877] was tested, and the “Anti-CD28 Fab (SEQ ID NOs: 202, 203) signal” value was 0.45. For YCAGHAQEYMRKCL [Phage-872], the “Anti-CD28 Fab (SEQ ID NOs: 202, 203) signal” value was 0.49. In the case of YCAGHLDEYMEKCL [Phage-885], the “Anti-CD28 Fab (SEQ ID NOs: 202, 203) signal” value is reported as 0.4. With YCDGHWPGYLWKCL [Phage-883] the “Anti-CD28 Fab (SEQ ID NOs: 202, 203) signal” value was 0.42. YCDGHSTEYMWKCL [Phage-874] was tested, and the “Anti-CD28 Fab (SEQ ID NOs: 202, 203) signal” value was 0.49. YCDGHLETYMQKCL [Phage-865] was tested, and the “Anti-CD28 Fab (SEQ ID NOs: 202, 203) signal” value was 0.53. YCDGHAAMYMSKCL [Phage-870] was tested, and the “Anti-CD28 Fab (SEQ ID NOs: 202, 203) signal” value was 0.5. For YCAGHIPQYLNKCL [Phage-873], the “Anti-CD28 Fab (SEQ ID NOs: 202, 203) signal” value was 0.49. YCEGHVPQYMGKCL [Phage-869] was tested, and the “Anti-CD28 Fab (SEQ ID NOs: 202, 203) signal” value was 0.5. In the case of YCAGHTTEYIVKCL [Phage-868], the “Anti-CD28 Fab (SEQ ID NOs: 202, 203) signal” value is reported as 0.5. YCEGHVELYRQKCL [Phage-864] was tested, and the “Anti-CD28 Fab (SEQ ID NOs: 202, 203) signal” value was 0.56.

The binders below were run against T1, anti-CD28 Fab (SEQ ID NOs: 202, 203) (assay: phage ELISA on captured Fab;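 also: ELISA with clonal phage supernatants added to wells preincubated with CD28 antigen or with blocking buffer only, bound phage detected by HRP-conjugated anti-M13 antibody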).
T1 construct: biotinylated and captured on neutravidin coated plates in the phage ELISA
T1 sequence (VH, as listed by the source, chain 1 of 2): as the sequence (VH, as listed by the source, chain 1 of 2) above
T1 sequence (VL, as listed by the source, chain 2 of 2): as the sequence (VL, as listed by the source, chain 2 of 2) above
Protocol: as §1
YCDGHIGLYLNKCL (on phage, pIII fusion) [Phage-463] was tested, and the “Anti-CD28 Fab (SEQ ID NOs: 202, 203) signal” value was 1.66. YCEGHAQEYMNKCL (on phage, pIII fusion) [Phage-460] was tested, and the “Anti-CD28 Fab (SEQ ID NOs: 202, 203) signal” value was 1.67. YCDGHSPAYIWKCL (on phage, pIII fusion) [Phage-450] was tested, and the “Anti-CD28 Fab (SEQ ID NOs: 202, 203) signal” value was 1.68. YCDGHAAEYMAKCV (on phage, pIII fusion) [Phage-459] was tested, and the “Anti-CD28 Fab (SEQ ID NOs: 202, 203) signal” value was 1.67. In the case of YCDGHSREYMSKCL (on phage, pIII fusion) [Phage-458], the “Anti-CD28 Fab (SEQ ID NOs: 202, 203) signal” value is reported as 1.67. With YCDGHSREYMNKCL (on phage, pIII fusion) [Phage-469] the “Anti-CD28 Fab (SEQ ID NOs: 202, 203) signal” value was 1.66. YCDGHSWQYISKCL (on phage, pIII fusion) [Phage-455] was tested, and the “Anti-CD28 Fab (SEQ ID NOs: 202, 203) signal” value was 1.67. For YCDGHSTEYMEKCL (on phage, pIII fusion) [Phage-453], the “Anti-CD28 Fab (SEQ ID NOs: 202, 203) signal” value was 1.68. In the case of YCDGHSQEYMEKCL (on phage, pIII fusion) [Phage-564], the “Anti-CD28 Fab (SEQ ID NOs: 202, 203) signal” value is reported as 1.5. YCDGHSVEYMEKCL (on phage, pIII fusion) [Phage-476] was tested, and the “Anti-CD28 Fab (SEQ ID NOs: 202, 203) signal” value was 1.65. In the case of YCDGHSADYMAKCL (on phage, pIII fusion) [Phage-462], the “Anti-CD28 Fab (SEQ ID NOs: 202, 203) signal” value is reported as 1.67. With YCEGHAPQYMNKCL (on phage, pIII fusion) [Phage-456] the “Anti-CD28 Fab (SEQ ID NOs: 202, 203) signal” value was 1.67. With YCEGHAPQYMTKCL (on phage, pIII fusion) [Phage-461] the “Anti-CD28 Fab (SEQ ID NOs: 202, 203) signal” value was 1.67. With YCDGHAQEYMDKCL (on phage, pIII fusion) [Phage-500] the “Anti-CD28 Fab (SEQ ID NOs: 202, 203) signal” value was 1.62. For YCDGHAKEYMDKCL (on phage, pIII fusion) [Phage-452], the “Anti-CD28 Fab (SEQ ID NOs: 202, 203) signal” value was 1.68. With YCDGHAPQWMAKCL (on phage, pIII fusion) [Phage-457] the “Anti-CD28 Fab (SEQ ID NOs: 202, 203) signal” value was 1.67. YCDGHSEQYMSKCL (on phage, pIII fusion) [Phage-451] was tested, and the “Anti-CD28 Fab (SEQ ID NOs: 202, 203) signal” value was 1.68. In the case of YCDGHSLQYMSKCL (on phage, pIII fusion) [Phage-589], the “Anti-CD28 Fab (SEQ ID NOs: 202, 203) signal” value is reported as 1.45. For YCDGHSEVYMAKCL (on phage, pIII fusion) [Phage-471], the “Anti-CD28 Fab (SEQ ID NOs: 202, 203) signal” value was 1.66. YCDGHSSLYMHKCL (on phage, pIII fusion) [Phage-454] was tested, and the “Anti-CD28 Fab (SEQ ID NOs: 202, 203) signal” value was 1.67.

These binders were tested against Anti-CD28 Fab (SEQ ID NOs: 202, 203) (assay: phage binding ELISA on captured Fab, competitor CD28 antigen;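 also: clonal phage supernatant binding in wells preincubated with CD28 antigen in blocking buffer, detected by HRP-conjugated anti-M13 antibody ELISA, compared with blocking buffer alone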).
Protocol: as §1
With YCEGHLQEYMGKCL [Phage-860] the “Anti-CD28 Fab signal in the presence of CD28” value (shortened to “Anti-CD28 Fab signal”) was 0.25. For YCAGHDAEYMQKCL [Phage-876], the “Anti-CD28 Fab signal” value was 0.06. YCDGHTWMYKQKCL [Phage-886] was tested, and the “Anti-CD28 Fab signal” value was 0.08. YCEGHIKDYMTKCL [Phage-875] was tested, and the “Anti-CD28 Fab signal” value was 0.08. In the case of YCEGHKKEYMLKCL [Phage-863], the “Anti-CD28 Fab signal” value is reported as 0.08. In the case of YCQGHLPIYIQKCL [Phage-866], the “Anti-CD28 Fab signal” value is reported as 0.07. With YCDGHIMPYLDKCL [Phage-862] the “Anti-CD28 Fab signal” value was 0.05. With YCDGHSQIYMSKCL [Phage-882] the “Anti-CD28 Fab signal” value was 0.06. In the case of YCDGHVTEYMAKCL [Phage-861], the “Anti-CD28 Fab signal” value is reported as 0.07. YCDGHDEQYLMKCL [Phage-879] was tested, and the “Anti-CD28 Fab signal” value was 0.07. For YCEGHLGLYMKKCL [Phage-871], the “Anti-CD28 Fab signal” value was 0.06. In the case of YCEGHLDEYLQKCM [Phage-867], the “Anti-CD28 Fab signal” value is reported as 0.08. YCEGHAPVYMQKCL [Phage-878] was tested, and the “Anti-CD28 Fab signal” value was 0.08. For YCTGWQVAYMQNCF [Phage-884], the “Anti-CD28 Fab signal” value was 0.06. With YCEGHMQWYMAKCL [Phage-877] the “Anti-CD28 Fab signal” value was 0.09. In the case of YCAGHAQEYMRKCL [Phage-872], the “Anti-CD28 Fab signal” value is reported as 0.07. With YCAGHLDEYMEKCL [Phage-885] the “Anti-CD28 Fab signal” value was 0.07. In the case of YCDGHWPGYLWKCL [Phage-883], the “Anti-CD28 Fab signal” value is reported as 0.06. YCDGHSTEYMWKCL [Phage-874] was tested, and the “Anti-CD28 Fab signal” value was 0.06. In the case of YCDGHLETYMQKCL [Phage-865], the “Anti-CD28 Fab signal” value is reported as 0.08. For YCDGHAAMYMSKCL [Phage-870], the “Anti-CD28 Fab signal” value was 0.07. With YCAGHIPQYLNKCL [Phage-873] the “Anti-CD28 Fab signal” value was 0.07. For YCEGHVPQYMGKCL [Phage-869], the “Anti-CD28 Fab signal” value was 0.08. YCAGHTTEYIVKCL [Phage-868] was tested, and the “Anti-CD28 Fab signal” value was 0.05. YCEGHVELYRQKCL [Phage-864] was tested, and the “Anti-CD28 Fab signal” value was 0.06.

The binders below were run against T1, anti-CD28 Fab (SEQ ID NOs: 202, 203) (assay: phage ELISA on captured Fab, wells pre-incubated with CD28 antigen (competitor);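 also: clonal phage ELISA with wells pretreated with CD28 plus blocking buffer before phage addition, bound phage detected by HRP-linked anti-M13 antibody, reference wells got blocking buffer only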).
Protocol: as §1
With YCDGHIGLYLNKCL (on phage, pIII fusion) [Phage-463] the “Anti-CD28 Fab signal” value was 0.06. In the case of YCEGHAQEYMNKCL (on phage, pIII fusion) [Phage-460], the “Anti-CD28 Fab signal” value is reported as 0.06. In the case of YCDGHSPAYIWKCL (on phage, pIII fusion) [Phage-450], the “Anti-CD28 Fab signal” value is reported as 0.08. In the case of YCDGHAAEYMAKCV (on phage, pIII fusion) [Phage-459], the “Anti-CD28 Fab signal” value is reported as 0.07. With YCDGHSREYMSKCL (on phage, pIII fusion) [Phage-458] the “Anti-CD28 Fab signal” value was 0.1. For YCDGHSREYMNKCL (on phage, pIII fusion) [Phage-469], the “Anti-CD28 Fab signal” value was 0.06. YCDGHSWQYISKCL (on phage, pIII fusion) [Phage-455] was tested, and the “Anti-CD28 Fab signal” value was 0.05. For YCDGHSTEYMEKCL (on phage, pIII fusion) [Phage-453], the “Anti-CD28 Fab signal” value was 0.08. With YCDGHSQEYMEKCL (on phage, pIII fusion) [Phage-564] the “Anti-CD28 Fab signal” value was 0.06. For YCDGHSVEYMEKCL (on phage, pIII fusion) [Phage-476], the “Anti-CD28 Fab signal” value was 0.09. With YCDGHSADYMAKCL (on phage, pIII fusion) [Phage-462] the “Anti-CD28 Fab signal” value was 0.07. In the case of YCEGHAPQYMNKCL (on phage, pIII fusion) [Phage-456], the “Anti-CD28 Fab signal” value is reported as 0.08. In the case of YCEGHAPQYMTKCL (on phage, pIII fusion) [Phage-461], the “Anti-CD28 Fab signal” value is reported as 0.08. YCDGHAQEYMDKCL (on phage, pIII fusion) [Phage-500] was tested, and the “Anti-CD28 Fab signal” value was 0.08. With YCDGHAKEYMDKCL (on phage, pIII fusion) [Phage-452] the “Anti-CD28 Fab signal” value was 0.08. With YCDGHAPQWMAKCL (on phage, pIII fusion) [Phage-457] the “Anti-CD28 Fab signal” value was 0.1. YCDGHSEQYMSKCL (on phage, pIII fusion) [Phage-451] was tested, and the “Anti-CD28 Fab signal” value was 0.07. In the case of YCDGHSLQYMSKCL (on phage, pIII fusion) [Phage-589], the “Anti-CD28 Fab signal” value is reported as 0.06. YCDGHSEVYMAKCL (on phage, pIII fusion) [Phage-471] was tested, and the “Anti-CD28 Fab signal” value was 0.06. In the case of YCDGHSSLYMHKCL (on phage, pIII fusion) [Phage-454], the “Anti-CD28 Fab signal” value is reported as 0.07.
